Experimental data as given in the supplement of paper PMC7125110.
± gives the standard error. For some assays here: Fewer inactive variants are shown than the library holds.

B1: glmS ribozyme (parent)
chain: AUAAAAGCGCCAGAACUACAGAAAUGUAGUUGACGAGGAGGAGGUUUAUCGAAUUUUCGGCGGAUGCCUCCAAA

How the values were obtained:
Conditions in all cases: with glucosamine-6-phosphate
glucosamine-6-phosphate [1] = variants of: B1; experiment: kcat; higher = faster cleavage; RNA array
Procedure, shortened: (§1)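 A hybridised Cy3 probe tracked barcoded ribozyme variants, transcribed in situ by E. coli RNA polymerase on sequenced MiSeq chips, at 37 °C. The variants received 40 μM to 10 mM glucosamine-6-phosphate in HEPES/KCl/Mg(OAc)2 buffer. kobs came from decay fits and kcat and KM from weighted Michaelis–Menten fits.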

glucosamine-6-phosphate [2] = variants of: B1; experiment: self-cleavage kobs at 40 uM GlcN6P; higher = faster cleavage; RNA array
Procedure, shortened: as §1

glucosamine-6-phosphate [3] = variants of: B1; experiment: self-cleavage kobs at 160 uM GlcN6P; higher = faster cleavage; RNA array
Procedure, shortened: as §1

glucosamine-6-phosphate [4] = variants of: B1; experiment: self-cleavage kobs at 640 uM GlcN6P; higher = faster cleavage; RNA array
Procedure, shortened: as §1

glucosamine-6-phosphate [5] = variants of: B1; experiment: self-cleavage kobs at 2500 uM GlcN6P; higher = faster cleavage; RNA array
Procedure, shortened: as §1

glucosamine-6-phosphate [6] = variants of: B1; experiment: self-cleavage kobs at 10000 uM GlcN6P; higher = faster cleavage; RNA array
Procedure, shortened: as §1

glucosamine-6-phosphate [7] = variants of: B1; experiment: KM; higher = weaker cofactor use; RNA array
Procedure, shortened: as §1

Variant | kcat (glucosamine-6-phosphate [1]) | self-cleavage kobs at 40 uM GlcN6P (glucosamine-6-phosphate [2]) | self-cleavage kobs at 160 uM GlcN6P (glucosamine-6-phosphate [3]) | self-cleavage kobs at 640 uM GlcN6P (glucosamine-6-phosphate [4]) | self-cleavage kobs at 2500 uM GlcN6P (glucosamine-6-phosphate [5]) | self-cleavage kobs at 10000 uM GlcN6P (glucosamine-6-phosphate [6]) | KM (glucosamine-6-phosphate [7])
A39G G66A | 0.0379 ± 0.019 s⁻¹ | 0.000706 ± 0.00011 s⁻¹ | 0.00437 ± 0.0011 s⁻¹ | 0.00601 ± 0.001 s⁻¹ | 0.0223 ± 0.0067 s⁻¹ | 0.0342 ± 0.0078 s⁻¹ | –
G32A A53U | 0.00208 ± 0.00084 s⁻¹ | 3.74e-05 ± 9.9e-06 s⁻¹ | 0.000175 ± 3.9e-05 s⁻¹ | 0.000595 ± 0.0001 s⁻¹ | 0.00067 ± 0.00016 s⁻¹ | 0.00228 ± 0.0003 s⁻¹ | –
A12U A39C U56G | 0.00242 ± 0.00054 s⁻¹ | 2.75e-05 ± 1e-05 s⁻¹ | 0.000109 ± 1.8e-05 s⁻¹ | 0.000287 ± 0.00011 s⁻¹ | 0.00138 ± 0.00027 s⁻¹ | 0.00168 ± 0.00031 s⁻¹ | 3430 ± 1000 µM
A14G A52U | 0.000706 ± 1.3e-05 s⁻¹ | – | – | 9.98e-05 ± 1.6e-05 s⁻¹ | 0.000274 ± 5.2e-05 s⁻¹ | 0.000509 ± 6.5e-05 s⁻¹ | 3890 ± 120 µM
A15U U30C | 0.000145 ± 1.2e-05 s⁻¹ | – | – | 3.48e-05 ± 6.3e-06 s⁻¹ | 6.99e-05 ± 6.6e-06 s⁻¹ | 0.00012 ± 1.1e-05 s⁻¹ | 2410 ± 450 µM
C11G A14G | 1.62e-05 ± 3.1e-06 s⁻¹ | < 1e-05 s⁻¹ | < 1e-05 s⁻¹ | – | – | – | –
A14G G41U | 0.00179 ± 0.00049 s⁻¹ | 0.00033 ± 4.5e-05 s⁻¹ | 0.000642 ± 0.00012 s⁻¹ | 0.00124 ± 0.00021 s⁻¹ | 0.00232 ± 0.00045 s⁻¹ | – | 206 ± 99 µM
G9U A48U C58G C67U | < 1e-05 s⁻¹ | < 1e-05 s⁻¹ | – | < 1e-05 s⁻¹ | – | – | –
G7A A39G | 0.000288 ± 6.2e-05 s⁻¹ | – | < 1e-05 s⁻¹ | – | – | 2.51e-05 ± 7.3e-06 s⁻¹ | –
A15U U31G C71U | 0.00048 ± 0.00012 s⁻¹ | 6.97e-05 ± 3.1e-05 s⁻¹ | 6.51e-05 ± 1.8e-05 s⁻¹ | 0.000238 ± 3.6e-05 s⁻¹ | 0.000267 ± 6.8e-05 s⁻¹ | 0.000517 ± 9.1e-05 s⁻¹ | –
C16A G40A | 0.000202 ± 6.3e-05 s⁻¹ | – | – | – | 0.000155 ± 2.1e-05 s⁻¹ | 0.000154 ± 2.9e-05 s⁻¹ | –
G32U A33C | < 1e-05 s⁻¹ | – | < 1e-05 s⁻¹ | < 1e-05 s⁻¹ | – | – | –
G59U C61G | < 1e-05 s⁻¹ | – | – | – | – | < 1e-05 s⁻¹ | –
G7A U47G C61U | 1.24e-05 ± 4e-06 s⁻¹ | – | – | – | – | – | –
A39G C58G C71A | 2.19e-05 ± 5.6e-06 s⁻¹ | – | – | – | – | – | –
G29A A53U | 0.00212 ± 0.00065 s⁻¹ | 9.5e-05 ± 1.9e-05 s⁻¹ | 0.000233 ± 5.5e-05 s⁻¹ | 0.000595 ± 9.3e-05 s⁻¹ | 0.00129 ± 0.00019 s⁻¹ | 0.00276 ± 0.00055 s⁻¹ | –
U30C C58U | 3.26e-05 ± 1.4e-05 s⁻¹ | – | – | < 1e-05 s⁻¹ | – | – | –

Variant | kcat (glucosamine-6-phosphate [1]) | self-cleavage kobs at 40 uM GlcN6P (glucosamine-6-phosphate [2]) | self-cleavage kobs at 160 uM GlcN6P (glucosamine-6-phosphate [3]) | self-cleavage kobs at 640 uM GlcN6P (glucosamine-6-phosphate [4]) | self-cleavage kobs at 2500 uM GlcN6P (glucosamine-6-phosphate [5]) | self-cleavage kobs at 10000 uM GlcN6P (glucosamine-6-phosphate [6]) | KM (glucosamine-6-phosphate [7])
A48C C68U | 8.75e-05 ± 8.5e-06 s⁻¹ | < 1e-05 s⁻¹ | – | – | 6.35e-05 ± 1.3e-05 s⁻¹ | 7.54e-05 ± 1.1e-05 s⁻¹ | 1310 ± 540 µM
U47G G59U | 2.47e-05 ± 4.4e-06 s⁻¹ | – | – | – | 3.31e-05 ± 1.7e-05 s⁻¹ | 2.13e-05 ± 1e-05 s⁻¹ | –
G13C U45A | 0.000315 ± 0.00011 s⁻¹ | – | – | 6.93e-05 ± 3.2e-05 s⁻¹ | 9.3e-05 ± 2.3e-05 s⁻¹ | 0.000213 ± 3.9e-05 s⁻¹ | –
A12U U45G | 0.0202 ± 0.0044 s⁻¹ | 0.000515 ± 6.4e-05 s⁻¹ | 0.00127 ± 0.00021 s⁻¹ | 0.00546 ± 0.0011 s⁻¹ | 0.0134 ± 0.0027 s⁻¹ | 0.0165 ± 0.0026 s⁻¹ | 1870 ± 530 µM
U30C U54A | 0.000514 ± 7.7e-05 s⁻¹ | – | – | 8.25e-05 ± 2.1e-05 s⁻¹ | 0.000182 ± 5.3e-05 s⁻¹ | 0.000378 ± 5.6e-05 s⁻¹ | 3790 ± 1100 µM
G32U C50G C71G | 0.000195 ± 2.4e-05 s⁻¹ | 0.000189 ± 5.1e-05 s⁻¹ | – | 0.000151 ± 6.3e-05 s⁻¹ | 0.000194 ± 6.4e-05 s⁻¹ | 0.000231 ± 5.8e-05 s⁻¹ | –
A64G | 0.0475 ± 0.0029 s⁻¹ | 0.000914 ± 1.8e-05 s⁻¹ | 0.0031 ± 0.0002 s⁻¹ | 0.0109 ± 0.0004 s⁻¹ | 0.0249 ± 0.0011 s⁻¹ | 0.0412 ± 0.0018 s⁻¹ | 2080 ± 150 µM
A64C | 0.000188 ± 1.2e-05 s⁻¹ | – | 1.42e-05 ± 3e-06 s⁻¹ | 5.05e-05 ± 1.6e-06 s⁻¹ | 0.000127 ± 3e-06 s⁻¹ | 0.000157 ± 2.8e-06 s⁻¹ | 1610 ± 260 µM
C16A A42G | 0.00215 ± 0.00056 s⁻¹ | 3.27e-05 ± 1.1e-05 s⁻¹ | 0.000111 ± 2.3e-05 s⁻¹ | 0.00062 ± 0.00012 s⁻¹ | 0.00103 ± 0.0002 s⁻¹ | 0.00165 ± 0.00043 s⁻¹ | 2550 ± 900 µM
A48U G66U | 2.75e-05 ± 2.7e-06 s⁻¹ | – | – | – | – | 2.42e-05 ± 8e-06 s⁻¹ | –
G29U U54A | 0.00792 ± 0.0027 s⁻¹ | 0.000181 ± 1.9e-05 s⁻¹ | 0.000284 ± 7.7e-05 s⁻¹ | 0.00184 ± 0.0003 s⁻¹ | 0.00361 ± 0.0006 s⁻¹ | 0.0068 ± 0.00083 s⁻¹ | 2360 ± 1100 µM
A15C U55C | 0.00633 ± 0.0012 s⁻¹ | 0.000138 ± 2e-05 s⁻¹ | 0.000383 ± 7.4e-05 s⁻¹ | 0.00121 ± 0.00034 s⁻¹ | 0.00302 ± 0.00052 s⁻¹ | 0.00573 ± 0.00087 s⁻¹ | 2200 ± 580 µM
A39C U65A | 0.000512 ± 3.7e-05 s⁻¹ | – | – | 6.9e-05 ± 1.1e-05 s⁻¹ | 0.000191 ± 2.8e-05 s⁻¹ | 0.000359 ± 4.1e-05 s⁻¹ | 4220 ± 530 µM
A15G G29U C50G | 3.72e-05 ± 6.3e-06 s⁻¹ | – | – | – | 5.06e-05 ± 2.4e-05 s⁻¹ | – | –
U65A U69G | 5.5e-05 ± 1.5e-05 s⁻¹ | – | 7.34e-05 ± 1.9e-05 s⁻¹ | 4.35e-05 ± 1.4e-05 s⁻¹ | 8.3e-05 ± 1.9e-05 s⁻¹ | – | –
G13U G29U | 0.000324 ± 4.8e-05 s⁻¹ | – | – | 4.23e-05 ± 9.2e-06 s⁻¹ | 0.000161 ± 2.1e-05 s⁻¹ | 0.000234 ± 2.3e-05 s⁻¹ | 3430 ± 1000 µM
